The values that follow come from US10131691B2, “Compositions and methods for specific regulation of pyruvate dehydrogenase kinase” (THE BOARD OF TRUSTEES OF THE LELAND STANFORD JUNIOR …, priority 2011, dated 2018).

Test [1] deals with T1, δPKC phosphorylation of Drp1 (Homo sapiens, UniProt Q05655).
T1 construct: purchased Invitrogen
Nature of the test: In vitro kinase assay: δPKC phosphorylation of Drp1. The class given is biochemical. The method, then:
In vitro phosphorylation assay. To determine the level of PDK and Drp1 phosphorylation in presence of ΨPDK, δPKC recombinant protein (Invitrogen, Calif., USA; 200 ng) was incubated with or without peptides for 10 min, then 100 ng recombinant PDK2 (Abnova, Taiwan) or Drp1 (Abnova, Taiwan) were added for 20 min at 37° C. in 40 μl of kinase buffer (20 mM Tris-HCl, 20 mM MgCl2, 1 μM DTT, 25 μM ATP, 1 mM CaCl2) containing 5 μCi [γ^32P] ATP (4500 Ci/mmol, ICN) in the presence of the low amount of PKC activators, phosphatidylserine (PS, 1.25 μg) and 1,2 dioleoyl sn-glycerol (DG, 0.04 μg). The kinase assay was terminated by adding loading Laemmli buffer containing 5% SDS and the samples were loaded on a 10% PAGE-SDS polyacrylamide gel, and the levels of phosphorylated PDK2 protein were determined by exposing the nitrocellulose to autoradiography. The nitrocellulose was also reprobed using respective antibodies for loading controls.
Since ΨPDK is derived from a PDK-like sequence in δPKC (FIG. 1B), it was reasoned that this peptide should act as a competitive inhibitor, selective for δPKC phosphorylation of PDK. To test this hypothesis directly, an in vitro kinase assay in which the ability of δPKC to phosphorylate PDK is determined was used.

The target of test [2] is T2, δPKC (Rattus norvegicus, UniProt P09215).
T2 construct: from tissue; host or cells: rat heart (ex vivo ischemia/reperfusion), mitochondrial fraction
T2 sequence (P09215 whole entry, the tested form may be a part): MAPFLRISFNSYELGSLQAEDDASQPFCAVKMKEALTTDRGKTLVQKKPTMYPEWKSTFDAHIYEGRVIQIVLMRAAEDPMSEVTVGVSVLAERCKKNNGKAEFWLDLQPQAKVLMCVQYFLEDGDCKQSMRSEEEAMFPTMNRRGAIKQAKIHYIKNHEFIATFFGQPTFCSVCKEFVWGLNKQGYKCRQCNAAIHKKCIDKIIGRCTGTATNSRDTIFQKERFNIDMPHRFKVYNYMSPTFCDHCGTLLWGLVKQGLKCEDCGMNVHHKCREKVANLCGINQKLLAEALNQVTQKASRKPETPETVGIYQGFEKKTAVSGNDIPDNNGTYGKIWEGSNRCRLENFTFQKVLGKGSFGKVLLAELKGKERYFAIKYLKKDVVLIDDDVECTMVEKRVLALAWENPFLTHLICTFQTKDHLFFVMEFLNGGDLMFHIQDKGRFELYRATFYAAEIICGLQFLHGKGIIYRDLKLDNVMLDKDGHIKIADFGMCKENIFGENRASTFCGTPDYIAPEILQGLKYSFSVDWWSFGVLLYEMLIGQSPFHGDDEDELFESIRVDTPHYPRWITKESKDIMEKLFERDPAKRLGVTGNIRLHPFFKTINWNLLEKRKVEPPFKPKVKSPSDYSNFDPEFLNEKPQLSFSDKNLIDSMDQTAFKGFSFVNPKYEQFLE
Nature of the test: δPKC translocation into mitochondria in intact hearts (ex vivo I/R). On the procedure: (§1) An ex vivo model of acute ischemic heart damage was used, which involves a 30 min equilibration period, followed by 30 min of global ischemia, which in turn is followed by 60 min of reperfusion. The hearts were perfused with 1 μM TAT or TAT-conjugated peptide. Normoxic control hearts were subjected to 90 min perfusion in the absence of ischemia. Coronary effluent was collected to determine creatine phosphokinase (CPK) release during the first 30 min of the reperfusion period. At the end of the reperfusion period, hearts were sliced into 1-mm-thick transverse sections and incubated in triphenyltetrazolium chloride solution (TTC, 1% in phosphate buffer, pH 7.4) at 37° C. for 15 min. Infarct size was expressed as a percentage of the risk zone (equivalent to total LV muscle mass) (methods described in Brandman et al., 2007, J. Biol. Chem., 282:4113-4123; Inagaki et al., 2003, Circulation, 108:869-875).
Rat hearts were homogenized in a buffer containing 210 mM mannitol, 70 mM sucrose, 5 mM MOPS and 1 mM EDTA followed by isolation of the mitochondria fraction (described in Churchill et al., 2008, J. Mol. Cell. Cardiol., 46:278-284) and identified by the presence of VDAC (MitoSciences, Eugene, Oreg., USA). The level of phosphorylated and unphosphorylated JNK1/2 was analyzed in the total fraction using respective specific antibodies (Cell Signaling, Danvers, Mass. and Santa Cruz Biotechnology, CA, USA). […]
Phosphorylation of the mitochondrial PDK by δPKC occurs only following myocardial infarction Under these conditions, δPKC translocates into the mitochondria (Churchill et al., 2005, Circ. Res., 97:78-85) where it has access to PDK. It was therefore first determined whether ΨPDK peptide affects δPKC translocation into the mitochondria. […] However, similar to the mitochondrial matrix protein, aldehyde dehydrogenase (ALDH2), the majority of δPKC was insensitive to proteolysis by PK (FIG. 4C; quantitated in FIG. 4D).

Test [3] deals with T3, δPKC (Mus musculus, UniProt P28867).
T3 construct: endogenous in cells; host or cells: primary fibroblasts from wild-type mice
T3 sequence (P28867 whole entry): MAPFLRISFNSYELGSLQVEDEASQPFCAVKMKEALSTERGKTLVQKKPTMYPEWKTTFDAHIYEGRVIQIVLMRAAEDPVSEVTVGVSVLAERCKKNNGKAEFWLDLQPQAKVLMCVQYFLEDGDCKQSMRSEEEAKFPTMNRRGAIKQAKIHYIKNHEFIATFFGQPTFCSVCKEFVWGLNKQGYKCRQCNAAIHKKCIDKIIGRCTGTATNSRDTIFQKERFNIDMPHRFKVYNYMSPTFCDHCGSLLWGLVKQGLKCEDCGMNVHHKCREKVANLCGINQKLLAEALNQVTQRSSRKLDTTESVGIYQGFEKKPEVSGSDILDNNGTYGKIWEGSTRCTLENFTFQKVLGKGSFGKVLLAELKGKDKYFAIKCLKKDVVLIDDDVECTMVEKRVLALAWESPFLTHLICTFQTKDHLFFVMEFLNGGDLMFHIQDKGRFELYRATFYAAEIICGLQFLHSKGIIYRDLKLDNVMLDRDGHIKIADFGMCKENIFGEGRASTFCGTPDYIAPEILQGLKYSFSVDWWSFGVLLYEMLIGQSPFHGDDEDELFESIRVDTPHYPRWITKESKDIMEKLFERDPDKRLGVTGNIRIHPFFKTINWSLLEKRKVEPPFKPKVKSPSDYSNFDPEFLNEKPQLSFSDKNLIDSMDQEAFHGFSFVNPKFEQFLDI
Put plainly: MARCKS phosphorylation in wild-type fibroblasts (Western blot). The conditions noted are these: 20% serum, peptides conjugated to TAT47-57, relative to control peptide. The class given is cell-based. An excerpt:
Fibroblasts were isolated from wild-type or δPKC knockout mice (provided by Dr. Robert Messing, Gallo Center, UCSF) as previously described (Disatnik et al., 2004, J. Cell Sci., 117:4469-4479) and maintained in 20% fetal bovine serum.
Phosphorylation of myristoylated alanine-rich C kinase substrate (MARCKS), a ubiquitous PKC substrate, was monitored by Western blot of total cell lysates, using anti-phosphorylated MARCKS (Cell Signaling, Danvers, Mass.). Anti-MARCKS and anti-δPKC antibodies were obtained from Santa Cruz Biotechnology (Santa Cruz Biotechnology, CA, USA).
The ΨPDK sequence is found both in PDK and in the PDK-cognate protein, δPKC. It was therefore predicted that ΨPDK mimics inhibitory intra-molecular interaction, and, similar to ΨδRACK, ΨPDK should compete with the inhibitory interaction of PDK and δPKC, and increase δPKC-mediated functions (FIG. 1A). Phosphorylation of myristoylated alanine-rich C-kinase substrate (MARCKS) was used as a marker of PKC activity (Disatnik et al., 2004, J. Cell. Sci., 117:4469-4479). […] To determine the selectivity of the peptides for δPKC, fibroblasts derived from δPKC knock-out mice were also used.

Test [4] relates to MARCKS. Nature of the test: MARCKS phosphorylation in hearts subjected to I/R. The conditions noted are these: vs control peptide. Also noted: species or system rat. The method, then: as §1

No end group written: not given here.

T1 sequence (Q05655 whole entry): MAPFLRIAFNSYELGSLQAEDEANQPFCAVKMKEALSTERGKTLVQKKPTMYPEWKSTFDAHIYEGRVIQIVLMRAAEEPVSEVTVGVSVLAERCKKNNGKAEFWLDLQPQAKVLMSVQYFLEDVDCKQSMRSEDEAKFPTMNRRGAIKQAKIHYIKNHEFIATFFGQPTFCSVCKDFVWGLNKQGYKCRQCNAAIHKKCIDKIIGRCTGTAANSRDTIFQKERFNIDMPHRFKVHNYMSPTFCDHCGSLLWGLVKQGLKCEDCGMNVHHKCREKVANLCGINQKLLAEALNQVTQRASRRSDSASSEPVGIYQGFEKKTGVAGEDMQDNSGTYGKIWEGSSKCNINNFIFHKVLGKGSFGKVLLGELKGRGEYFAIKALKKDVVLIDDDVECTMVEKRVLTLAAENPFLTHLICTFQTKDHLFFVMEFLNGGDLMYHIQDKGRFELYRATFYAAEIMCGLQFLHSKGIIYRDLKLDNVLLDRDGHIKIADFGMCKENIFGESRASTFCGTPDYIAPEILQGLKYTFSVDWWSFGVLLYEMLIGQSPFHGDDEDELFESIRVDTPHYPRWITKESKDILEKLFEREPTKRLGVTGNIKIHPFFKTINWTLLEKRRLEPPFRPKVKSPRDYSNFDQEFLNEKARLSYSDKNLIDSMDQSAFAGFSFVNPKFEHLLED

Take “ALSTER (not fully specified (C-terminus); also: TAT47-57 conjugated via disulfide) [ΨPDK, for cells and hearts conjugated to TAT47-57 via disulfide bond]”: the “Drp1 phosphorylation by δPKC” value in test [1] is on record as “did not affect Drp1 phosphorylation”. In addition, in test [2] (following I/R), the “δPKC entry into the mitochondria (proteinase K resistance)” value is given as “increased I/R-induced δPKC entry into the mitochondria”. Moreover, the “δPKC association with the mitochondria” value in test [2] (following I/R, vs control peptide) is listed as “two-fold increase”. Moreover, in test [2] (normoxic condition), the “δPKC translocation to the mitochondria” value was “did not induce δPKC translocation to the mitochondria”. For the same substance, the MARCKS phosphorylation result in test [3] is recorded as “increased MARCKS phosphorylation”. The “I/R-induced MARCKS phosphorylation” value in test [4] is “an increase in I/R-induced MARCKS phosphorylation”.
